Measured values published in the supplement of paper PMC10567573.

B1: OR3A1 (parent)
chain: PMYFFLGNLSVLDVGCISVTVPSM

Variants of: B1
Experiment: protein stability index of a GFP-peptide fusion (GPS, HEK-293T) (PSI 1-6); higher = more stable
Conditions: c terminus: a fixed tail appended
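Also: lentivirally expressed fusions sorted by FACS into six bins by GFP to DsRed ratio, PSI derived from sequencing read proportions per bin multiplied by bin number.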

Q: For PMYFFLGNLSVLDVGCIQVTVPSM [S18Q], which protein stability index is on record?
A: 2.54

Q: For PMYFFLGNLSVLDVGCIYVTVPSM [S18Y], which protein stability index is on record?
A: 2.26

Q: Which protein stability index does the source give for PMYFFLGNLSVLDVGCIKVTVPSM [S18K] here?
A: 2.67

Q: With PMYFFLGNLSVLDVGCIFVTVPSM [S18F] as the variant, how does the protein stability index read?
A: 1.68

Q: With PMYFFLGNLSVLDVGCIIVTVPSM [S18I] as the variant, how does the protein stability index read?
A: 3.52

Q: For PMYFFLGNLSVLDVGCIPVTVPSM [S18P], which protein stability index is on record?
A: 2.5

Q: Which protein stability index does the source give for PMYFFLGNLSVLDVGCIGVTVPSM [S18G] here?
A: 2.33

Q: Which protein stability index does the source give for PMYFFLGNLSVLDVGCIRVTVPSM [S18R] here?
A: 3.87

Q: Which protein stability index does the source give for PMYFFLGNLSVLDVGCIHVTVPSM [S18H] here?
A: 3.06

Q: Which protein stability index does the source give for PMYFFLGNLSVLDVGCISVTVPWM [S23W] here?
A: 2.84

Q: With PMYFFLGNLSVLDVGCISVTVPDM [S23D] as the variant, how does the protein stability index read?
A: 4.24

Q: For PMYFFLGNLSVLDVGCISVTVPVM [S23V], which protein stability index is on record?
A: 4.29

Q: Which protein stability index does the source give for PMYFFLGNLSVLDVGCISVTVPKM [S23K] here?
A: 2.42

Q: With PMYFFLGNLSVLDVGCISVTVPHM [S23H] as the variant, how does the protein stability index read?
A: 2.76

Q: Which protein stability index does the source give for PMYFFLGNLSVLDVGCISVTVPTM [S23T] here?
A: 2.84

Q: Which protein stability index does the source give for PMYFFLGNLSVLDVGCISVTVPNM [S23N] here?
A: 2.58

Q: Which protein stability index does the source give for PMYFFLGNLSVLDVGCISVTVPMM [S23M] here?
A: 2.67

Q: For PMYFFLGNLSVLDVGCISVTVPPM [S23P], which protein stability index is on record?
A: 2.46

Q: Which protein stability index does the source give for PMYFFLGNLSVLDVGCISVTVPIM [S23I] here?
A: 2.86

Q: For PMYFFLGNLSVLDVGCISVTVPYM [S23Y], which protein stability index is on record?
A: 4.04

Q: With PMYFFLGNLSVLDVGCISVTVPAM [S23A] as the variant, how does the protein stability index read?
A: 3.86

Q: For PMYFFLGNLSVLDVGCISVTSPSM [V21S], which protein stability index is on record?
A: 2.8

Q: For PMYFFLGNLSVLDVGCISVTWPSM [V21W], which protein stability index is on record?
A: 2.5

Q: With PMYFFLGNLSVLDVGCISVTIPSM [V21I] as the variant, how does the protein stability index read?
A: 2.55

Q: For PMYFFLGNLSVLDVGCISVTKPSM [V21K], which protein stability index is on record?
A: 3.59

Q: With PMYFFLGNLSVLDVGCISVTPPSM [V21P] as the variant, how does the protein stability index read?
A: 2.96

Q: Which protein stability index does the source give for PMYFFLGNLSVLDVGCISVTDPSM [V21D] here?
A: 4.14

Q: Which protein stability index does the source give for PMYFFLGNLSVLDVGCISVTFPSM [V21F] here?
A: 1.96

Q: With PMYFFLGNLSVLDVGCSSVTVPSM [I17S] as the variant, how does the protein stability index read?
A: 3.03

Q: Which protein stability index does the source give for PMYFFLGNLSVLDVGCPSVTVPSM [I17P] here?
A: 3.39

Q: Which protein stability index does the source give for PMYFFLGNLSVLDVGCKSVTVPSM [I17K] here?
A: 2.97

Q: With PMYFFLGNLSVLDVGCYSVTVPSM [I17Y] as the variant, how does the protein stability index read?
A: 1.63

Q: For PMYFFLGNLSVLDVGCESVTVPSM [I17E], which protein stability index is on record?
A: 2.17

Q: For PMYFFLGNLSILDVGCISVTVPSM [V11I], which protein stability index is on record?
A: 3.56

Q: Which protein stability index does the source give for PMYFFLGNLSELDVGCISVTVPSM [V11E] here?
A: 3.18

Q: Which protein stability index does the source give for PMYFFLGNLSTLDVGCISVTVPSM [V11T] here?
A: 2.86

Q: For PMYFFLGNLSGLDVGCISVTVPSM [V11G], which protein stability index is on record?
A: 2.77

Q: With PMYFFLGNLSFLDVGCISVTVPSM [V11F] as the variant, how does the protein stability index read?
A: 3.67

Q: Which protein stability index does the source give for PMYFFLGNLSNLDVGCISVTVPSM [V11N] here?
A: 2.23

Q: For PMYFFLGNLSDLDVGCISVTVPSM [V11D], which protein stability index is on record?
A: 3.12

Q: With PMYFFLGNLSRLDVGCISVTVPSM [V11R] as the variant, how does the protein stability index read?
A: 3.13

Q: For PMYFFLGNLSSLDVGCISVTVPSM [V11S], which protein stability index is on record?
A: 3.56

Q: With PEYFFLGNLSVLDVGCISVTVPSM [M2E] as the variant, how does the protein stability index read?
A: 2.1

Q: Which protein stability index does the source give for PHYFFLGNLSVLDVGCISVTVPSM [M2H] here?
A: 2.67

Q: Which protein stability index does the source give for PLYFFLGNLSVLDVGCISVTVPSM [M2L] here?
A: 4.31

Q: Which protein stability index does the source give for PGYFFLGNLSVLDVGCISVTVPSM [M2G] here?
A: 2.32

Q: For PMNFFLGNLSVLDVGCISVTVPSM [Y3N], which protein stability index is on record?
A: 2.37

Q: For PMTFFLGNLSVLDVGCISVTVPSM [Y3T], which protein stability index is on record?
A: 4.47

Q: With PMHFFLGNLSVLDVGCISVTVPSM [Y3H] as the variant, how does the protein stability index read?
A: 3.35

Q: With PMCFFLGNLSVLDVGCISVTVPSM [Y3C] as the variant, how does the protein stability index read?
A: 4.31

Q: With PMYFFLGNLSVLDLGCISVTVPSM [V14L] as the variant, how does the protein stability index read?
A: 4.23

Q: With PMYFFLGNLSVLDQGCISVTVPSM [V14Q] as the variant, how does the protein stability index read?
A: 1.89

Q: For PMYFFLGNLSVLDNGCISVTVPSM [V14N], which protein stability index is on record?
A: 3.31

Q: For PMYFFLGNLSVLDHGCISVTVPSM [V14H], which protein stability index is on record?
A: 2.23

Q: With PMYFFLGNLSVLDYGCISVTVPSM [V14Y] as the variant, how does the protein stability index read?
A: 4.29

Q: Which protein stability index does the source give for PMYFFLGNLSVLDCGCISVTVPSM [V14C] here?
A: 1.99

Q: For PMYFFLGNLSVLDGGCISVTVPSM [V14G], which protein stability index is on record?
A: 3.25

Q: With PMYFFLGNLSVLDPGCISVTVPSM [V14P] as the variant, how does the protein stability index read?
A: 4.21

Q: With PMYFFLGNLSVLDMGCISVTVPSM [V14M] as the variant, how does the protein stability index read?
A: 3.24

Q: For PMYFFLGNLSVLDTGCISVTVPSM [V14T], which protein stability index is on record?
A: 3.36

Q: With PMYFNLGNLSVLDVGCISVTVPSM [F5N] as the variant, how does the protein stability index read?
A: 2.82

Q: Which protein stability index does the source give for PMYFSLGNLSVLDVGCISVTVPSM [F5S] here?
A: 3.9

Q: Which protein stability index does the source give for PMYFELGNLSVLDVGCISVTVPSM [F5E] here?
A: 1.46

Q: Which protein stability index does the source give for PMYFGLGNLSVLDVGCISVTVPSM [F5G] here?
A: 1.83

Q: For PMYFVLGNLSVLDVGCISVTVPSM [F5V], which protein stability index is on record?
A: 2.3

Q: Which protein stability index does the source give for PMYFPLGNLSVLDVGCISVTVPSM [F5P] here?
A: 1.79

Q: Which protein stability index does the source give for PMYFHLGNLSVLDVGCISVTVPSM [F5H] here?
A: 2.64

Q: For PMYFFLGNLSVLDVGCISETVPSM [V19E], which protein stability index is on record?
A: 1.14

Q: Which protein stability index does the source give for PMYFFLGNLSVLDVGCISTTVPSM [V19T] here?
A: 4.48

Q: For PMYFFLGNLSVLDVGCISFTVPSM [V19F], which protein stability index is on record?
A: 3.66

Q: Which protein stability index does the source give for PMYFFLGNLSVLDVGCISDTVPSM [V19D] here?
A: 3.51

Q: With PMYFFLGNLSVLDVGCISKTVPSM [V19K] as the variant, how does the protein stability index read?
A: 3.29

Q: Which protein stability index does the source give for PMYFFLGNLSVLDVGCISCTVPSM [V19C] here?
A: 3.96

Q: Which protein stability index does the source give for PMYFFLGNLSVLDVGCISQTVPSM [V19Q] here?
A: 3.27

Q: For PMYFFLGNLSVLDVGCISMTVPSM [V19M], which protein stability index is on record?
A: 2.97

Q: For PMYFFLGNLSVLDVGCISPTVPSM [V19P], which protein stability index is on record?
A: 2.55

Q: With PMYFFLGNLSVGDVGCISVTVPSM [L12G] as the variant, how does the protein stability index read?
A: 2.35

Q: For PMYFFLGNLSVCDVGCISVTVPSM [L12C], which protein stability index is on record?
A: 2.83

Q: Which protein stability index does the source give for PMYFFLGNLSVSDVGCISVTVPSM [L12S] here?
A: 1.53

Q: Which protein stability index does the source give for PMYFFLGNLSVDDVGCISVTVPSM [L12D] here?
A: 3.05

Q: With PMYFFLGNLSVTDVGCISVTVPSM [L12T] as the variant, how does the protein stability index read?
A: 4.2

Q: With PMYFFLGNLSVHDVGCISVTVPSM [L12H] as the variant, how does the protein stability index read?
A: 2.78

Q: For PMYFFLGNLSVIDVGCISVTVPSM [L12I], which protein stability index is on record?
A: 3.78

Q: With PMYFFLGNLSVYDVGCISVTVPSM [L12Y] as the variant, how does the protein stability index read?
A: 3.05

Q: Which protein stability index does the source give for PMYFFLGNLSVLDVGMISVTVPSM [C16M] here?
A: 3.08

Q: Which protein stability index does the source give for PMYFFLGNLSVLDVGYISVTVPSM [C16Y] here?
A: 2.14

Q: With PMYFFLGNLSVLDVGFISVTVPSM [C16F] as the variant, how does the protein stability index read?
A: 2.85

Q: Which protein stability index does the source give for PMYFFLGNLSVLDVGDISVTVPSM [C16D] here?
A: 3.14

Q: For PMYFFLGNLSVLDVGTISVTVPSM [C16T], which protein stability index is on record?
A: 3.51

Q: For PMYFFLGNLSVLDVGRISVTVPSM [C16R], which protein stability index is on record?
A: 3.48

Q: Which protein stability index does the source give for PMYFFLGNLSVLDVGSISVTVPSM [C16S] here?
A: 3.15

Q: Which protein stability index does the source give for PMYFFLGNLSVLDVGHISVTVPSM [C16H] here?
A: 2.83

Q: With PMYFFLGNLSVLDVGKISVTVPSM [C16K] as the variant, how does the protein stability index read?
A: 2.14

Q: With PMYFFLGNLSVLDVGGISVTVPSM [C16G] as the variant, how does the protein stability index read?
A: 2.78
